One assay addresses dihydrofolate reductase. The experiment in a line: cell-based or functional assay. Set-up: unit not given beside the values.
A further assay concerns the target T1, type 1 IGF receptor (human, UniProt P08069 31-1367).
T1 construct: whole, on cells; also called IGF-1 receptor; IGF-1R
The experiment in a line: competition binding to IGF receptors against radioactive wild type IGF; approximate KD. On the procedure: 200 ul of each of these was mixed rapidly with 1.8 ml of refold buffer. Refold buffer was 1.4 M urea, 100 mM glycine, 0.5 M NaCl, 19% ethanol, 0.5 mM GSSG, 4 mM GSH, pH 9.5.

T1 sequence (P08069 31-1367): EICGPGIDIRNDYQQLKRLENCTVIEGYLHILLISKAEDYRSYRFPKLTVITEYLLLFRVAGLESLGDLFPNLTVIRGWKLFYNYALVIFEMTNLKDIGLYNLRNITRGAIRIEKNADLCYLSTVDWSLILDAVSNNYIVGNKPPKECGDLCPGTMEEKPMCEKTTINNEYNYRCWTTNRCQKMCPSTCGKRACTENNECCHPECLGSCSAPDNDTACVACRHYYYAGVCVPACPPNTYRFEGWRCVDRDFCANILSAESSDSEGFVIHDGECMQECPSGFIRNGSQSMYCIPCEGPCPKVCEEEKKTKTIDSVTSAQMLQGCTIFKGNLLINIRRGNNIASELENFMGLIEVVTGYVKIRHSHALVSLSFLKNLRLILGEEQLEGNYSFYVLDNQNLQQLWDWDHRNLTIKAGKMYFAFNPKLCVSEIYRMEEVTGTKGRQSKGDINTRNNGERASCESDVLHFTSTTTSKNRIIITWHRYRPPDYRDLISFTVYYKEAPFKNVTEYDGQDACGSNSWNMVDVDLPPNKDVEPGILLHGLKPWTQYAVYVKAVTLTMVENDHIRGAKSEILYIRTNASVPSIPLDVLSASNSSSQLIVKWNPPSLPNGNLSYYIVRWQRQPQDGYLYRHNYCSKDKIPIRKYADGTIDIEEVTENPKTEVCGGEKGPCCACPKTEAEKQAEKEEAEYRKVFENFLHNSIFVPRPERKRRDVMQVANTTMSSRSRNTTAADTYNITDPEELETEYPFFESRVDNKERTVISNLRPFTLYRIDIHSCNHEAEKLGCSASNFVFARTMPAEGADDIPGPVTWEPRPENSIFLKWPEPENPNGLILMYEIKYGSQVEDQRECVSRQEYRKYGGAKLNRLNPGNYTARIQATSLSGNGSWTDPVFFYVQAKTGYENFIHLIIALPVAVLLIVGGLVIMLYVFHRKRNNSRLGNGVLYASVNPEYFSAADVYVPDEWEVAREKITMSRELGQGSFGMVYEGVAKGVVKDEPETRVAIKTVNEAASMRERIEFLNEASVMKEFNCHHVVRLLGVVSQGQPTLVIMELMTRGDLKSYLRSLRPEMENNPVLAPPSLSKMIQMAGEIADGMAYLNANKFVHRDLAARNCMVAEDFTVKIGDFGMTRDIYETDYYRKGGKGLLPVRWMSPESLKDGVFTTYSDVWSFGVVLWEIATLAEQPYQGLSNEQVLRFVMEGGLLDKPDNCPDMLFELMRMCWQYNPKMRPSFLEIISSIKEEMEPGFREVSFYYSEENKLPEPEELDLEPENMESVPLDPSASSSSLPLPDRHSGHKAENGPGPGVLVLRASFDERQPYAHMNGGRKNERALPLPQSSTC

B1: LR3IGF-MTX (other)
chain: MFPAMPLSSLFVNGPRTLCGALVDALQFVCGDRGFYFNKPTGYGSSSRRAPQTGIVDECCFRSCDLRRLEMYCAPLKPAKSEA
modifications: methotrexate attached to amino groups; MTX:protein ratio of 2.8
As to B1, the “IC50 (inhibition of dihydrofolate reductase)” value with dihydrofolate reductase is 99.

B2: 785IGF (ligand)
chain: MVKQIESKTAFQEALDAAGDKLVVVDFSATWCGHCKMIKPFFHSLSEKYSNVIFLEVDVDDSQDVASESEVKSMPTFQFFKKGQKVGEFSGANKEKLEATINELVGSKSGHHHHHHSAKGFVNQHLCGSHLVEALYLVCGDRGFYFNKPTGYGSSSRRAPQTGIVDECCFRSCDLRRLEMYCAPLKPAKSA
notes: also called mutTrx-IGF132
For the molecule B2, the Kd (usually the equilibrium constant for the complex coming apart) with type 1 IGF receptor was about 40 nM.

B3: 403IGF (ligand)
chain: MTSGHHHHHHSAGVNGFVNQHLCGSHLVEALYLVCGDRGFYFNKPTGYGSSSRRAPQTGIVDECCFRSCDLRRLEMYCAPLKPAKSA
notes: also called His6-IGF
Turning to B3, the dissociation constant (Kd) with type 1 IGF receptor was about 2 nM.

B4: 764IGF (ligand)
chain: MVKGKHHHHHHNGKGKSKFVNQHLCGSHLVEALYLVCGDRGFYFNKPTGYGSSSRRAPQTGIVDECCFRSCDLRRLEMYCAPLKPAKSA
notes: also called His6-K5-IGF132
On to B4, for which the Kd in the assay with type 1 IGF receptor was about 100 nM.

These data come from patent US20150196656A1 (IGF ONCOLOGY, published 2015).
